Measured values taken from the supplement of paper PMC9112550, “Optimization of the antimicrobial peptide Bac7 by deep mutational scanning” (BMC Biology, 2022).

What follows are sequences tested on Escherichia coli TOP10 (assay: shrunken log2 fold change of peptide-encoding DNA abundance (4.5 h post-induction vs induction); higher = less antimicrobial activity (less host growth inhibition)). Conditions: time post-induction: 4.5 h; library: site-saturation at positions 5, 18, 19, 20.
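Further: peptides expressed intracellularly from a pBAD plasmid library in pooled LB shake-flask culture, induced with 0.3% L-arabinose, DNA abundance read by NGS, three biological replicates, DESeq2 with apeglm shrinkage.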

Row | Sequence | shrunken log2 fold change
1 | RRIRIRPPRLPRPRPRPVSWPRP | -0.171
2 | RRIRIRPPRLPRPRPRPVTPPRP | -0.0315
3 | RRIRIRPPRLPRPRPRPVYCPRP | -0.127
4 | RRIRIRPPRLPRPRPRPVYKPRP | -0.834
5 | RRIRIRPPRLPRPRPRPVYPPRP | -0.233
6 | RRIRIRPPRLPRPRPRPWAPPRP | -0.19
7 | RRIRIRPPRLPRPRPRPWDTPRP | -0.231
8 | RRIRIRPPRLPRPRPRPWEMPRP | 0.177
9 | RRIRIRPPRLPRPRPRPWFGPRP | -0.348
10 | RRIRIRPPRLPRPRPRPWFQPRP | -0.0137
11 | RRIRIRPPRLPRPRPRPWFSPRP | -0.201
12 | RRIRIRPPRLPRPRPRPWGLPRP | -0.192
13 | RRIRIRPPRLPRPRPRPWGMPRP | 0.0727
14 | RRIRIRPPRLPRPRPRPWHHPRP | -0.126
15 | RRIRIRPPRLPRPRPRPWIRPRP | -0.156
16 | RRIRIRPPRLPRPRPRPWIVPRP | -0.157
17 | RRIRIRPPRLPRPRPRPWKMPRP | -1.13
18 | RRIRIRPPRLPRPRPRPWLCPRP | -0.121
19 | RRIRIRPPRLPRPRPRPWLDPRP | -0.353
20 | RRIRIRPPRLPRPRPRPWLKPRP | 4.66
21 | RRIRIRPPRLPRPRPRPWLMPRP | -0.202
22 | RRIRIRPPRLPRPRPRPWLNPRP | -0.562
23 | RRIRIRPPRLPRPRPRPWMEPRP | -0.172
24 | RRIRIRPPRLPRPRPRPWMWPRP | 0.0832
25 | RRIRIRPPRLPRPRPRPWNCPRP | -0.000121

Row | Sequence | shrunken log2 fold change
26 | RRIRIRPPRLPRPRPRPWNMPRP | 0.0777
27 | RRIRIRPPRLPRPRPRPWPMPRP | 0.0828
28 | RRIRIRPPRLPRPRPRPWPWPRP | 0.0338
29 | RRIRIRPPRLPRPRPRPWPYPRP | -0.163
30 | RRIRIRPPRLPRPRPRPWQMPRP | 0.0562
31 | RRIRIRPPRLPRPRPRPWRKPRP | -0.143
32 | RRIRIRPPRLPRPRPRPWRNPRP | -0.0466
33 | RRIRIRPPRLPRPRPRPWSCPRP | 0.0678
34 | RRIRIRPPRLPRPRPRPWSPPRP | -0.269
35 | RRIRIRPPRLPRPRPRPWTIPRP | -0.0831
36 | RRIRIRPPRLPRPRPRPWYMPRP | -0.775
37 | RRIRIRPPRLPRPRPRPWYWPRP | -1.38
38 | RRIRIRPPRLPRPRPRPYATPRP | -0.334
39 | RRIRIRPPRLPRPRPRPYAYPRP | -0.0284
40 | RRIRIRPPRLPRPRPRPYFMPRP | -1.21
41 | RRIRIRPPRLPRPRPRPYGGPRP | 0.00177
42 | RRIRIRPPRLPRPRPRPYGIPRP | -0.329
43 | RRIRIRPPRLPRPRPRPYGNPRP | -1.18
44 | RRIRIRPPRLPRPRPRPYHYPRP | -0.415
45 | RRIRIRPPRLPRPRPRPYIMPRP | -1.15
46 | RRIRIRPPRLPRPRPRPYKAPRP | -0.361
47 | RRIRIRPPRLPRPRPRPYKWPRP | -0.424
48 | RRIRIRPPRLPRPRPRPYKYPRP | -0.89
49 | RRIRIRPPRLPRPRPRPYLEPRP | -0.849
50 | RRIRIRPPRLPRPRPRPYLKPRP | 0.000419

Row | Sequence | shrunken log2 fold change
51 | RRIRIRPPRLPRPRPRPYLQPRP | -0.00195
52 | RRIRIRPPRLPRPRPRPYLWPRP | -0.156
53 | RRIRIRPPRLPRPRPRPYMQPRP | -0.695
54 | RRIRIRPPRLPRPRPRPYPHPRP | -1.02
55 | RRIRIRPPRLPRPRPRPYQPPRP | 0.0299
56 | RRIRIRPPRLPRPRPRPYQRPRP | -0.12
57 | RRIRIRPPRLPRPRPRPYRSPRP | -0.186
58 | RRIRIRPPRLPRPRPRPYRYPRP | -0.127
59 | RRIRIRPPRLPRPRPRPYSEPRP | -0.535
60 | RRIRIRPPRLPRPRPRPYSFPRP | -0.307
61 | RRIRIRPPRLPRPRPRPYTMPRP | -0.758
62 | RRIRIRPPRLPRPRPRPYVAPRP | -0.674
63 | RRIRIRPPRLPRPRPRPYVFPRP | -0.0874
64 | RRIRIRPPRLPRPRPRPYVLPRP | -0.588
65 | RRIRIRPPRLPRPRPRPYYRPRP | -0.105
66 | RRIRKRPPRLPRPRPRPAAMPRP | 0.707
67 | RRIRKRPPRLPRPRPRPADEPRP | 0.19
68 | RRIRKRPPRLPRPRPRPADLPRP | 0.056
69 | RRIRKRPPRLPRPRPRPADSPRP | 0.00593
70 | RRIRKRPPRLPRPRPRPAEEPRP | 0.906
71 | RRIRKRPPRLPRPRPRPAFLPRP | 0.245
72 | RRIRKRPPRLPRPRPRPAGHPRP | 0.0606
73 | RRIRKRPPRLPRPRPRPAGNPRP | 0.304
74 | RRIRKRPPRLPRPRPRPAHDPRP | 0.536
75 | RRIRKRPPRLPRPRPRPAIMPRP | 0.418
